Measured values from the DeepSol protein solubility set.

assay: soluble on expression in E. coli; label from the status in PepcDB or PDB records

Sequence | soluble on expression in E. coli
MDLYYRPGSAPCRSVLMTAKALGVEFDKKTIINTRAREQFTPEYLKINPQHTIPTLHDHGFALWESRAIMVYLVEKYGKDDKLFPKDVQKQALINQRLYFDMGTLYKSFSEYYYPQIFLKKPANEENYKKIEVAFEFLNTFLEGQTYSAGGDYSLADIAFLATVSTFDVAGFDFKRYANVARWYENAKKLTPGWEENWAGCQEFRKYFDN | soluble
MDMDKRSSDLEAALRIVLQQTLNIVLQAQEKLPEANVVPSTPPTSPSTDIGEQMASFWNIPSPNPPATSATSSTSPEEEIPCICFNCWGNVAAAANSKTWKSPNQADFRSAAAPLTEEKSHA | not soluble
MDMKKWLVATALIATTISGVTQAKEWKTVRFGIEGAYPPFSWTEADGSLKGFDVDMANALCAEMQVECKIVPQDWDGIIPSLLARKYDAIIAAMSITEERKKKVDFTGKYAQIPNKFIAKKGADLAFTKEGLKGVKIGVQRATTHDKYITDNYGDTVDIVRYGSFDEAYLDLANGRIAAVLGDASALEEGMLNKPGGDAYEFVGPSLTDPKWFGEGMGIAVRKQDKELTEKLDAAITALREKGIYQQIQAKYFKYDVYGE | not soluble
MDNILNYPTSTHVDRLVPKTAFYKHLEINTRLKMRFVEDVERIQWLYKLAPSTMNVDTGKTVHEIVMFLVTLKAEDMPDDVFLAIDRQMPRHVVFVLQYANRGRLLLNYKEWVDANKTRFNILKTFRTEWMPLAKVKLELAGSSLDNIYEAFAGQISGFGTTNAADTKQIMALQDELARKRRAAEALQKRVRNERQFAKQMELNSEARALKREIAKLEEVLKTLENN | not soluble
MDNLQKYKPTDKMIDLISDNYSLLQVMSRFGLSLGFGDKTVKEVCELNGVDCRTFLIVVNFMSEGFSRMDGSSEDISIPALIDYLRQAHIYFLDFSLPAIRRKLIEAIDCSQDDVAFLILKFFDEYTREVRKHMDYEEKTVFKYVDALINGNAPRNYQISTFSKHHDQVGEKLTELKNIIIKYCPAKANENLLNAALFDIYACEAGLESHCKVEDYIFVPAILKLERRIRENEK | not soluble
MDPDLWEETGHNSELLLRLLPAARLTAVARDPQYTGRLEQVWQQYRTYLGAPVNRGNLPGLESNQVIAYFSAEFGLSEALPIYAGGLGFLAGDHLKSASDLGLPLVGVGLLYREGYFRQRLDRRGQQREVYSRYDFYQLPLELERRADGSPLEVQVNFPDPDRQVRARVWRARVGRLNLYLLDSDCPGNLEADRLITDRLYGGDLEKRIQQEILLGIGGVRALAALGINATIFHLNEGHSAFLGLERIRQLQARYGLDLASARELATCSNIFTTHTPVPAGIDVFPPYLMDKYFTEYYQSLGLSRHEFLALGRQDPNNQQEPFNMAVLALRLSAWANGVSQLHGQTARRMWQVIWPGVPVAEIPIGAITNGVHTTSWVGEKMAALYDRYLGTAWRELEHHHHHH | not soluble
MDPTEMRYLEEENGAMMKTFKDAVTGFATGKTSLVFIGVEQLVQNFRAKRDFFNGAHITMTKVARTHY | soluble
MDPTRGLCALSTHDLAKFHSLPPARKAAGKRAHLRCYSKLLSLKSWEQLASFLSLPPGPTFTDFRLFFEVTLGRRIADCVVVALQPYPRCYIVEFKTAMSNTANPQSVTRKAQRLEGTAQLCDCANFLRTSCPPVLGSQGLEVLAALVFKNQRSLRTLQVEFPALGQKTLPTSTTGLLNLLSRWQDGALRARLDRPRPTAQGHRPRTHVGPKPSQLTARVPRSARAGRAGGRKGQVGAVGQVCPGAQK | not soluble
MDQFECINVADAHQKLQEKEAVLVDIRDPQSFAMGHAVQAFHLTNDTLGAFMRDNDFDTPVMVMCYHGNSSKGAAQYLLQQGYDVVYSIDGGFEAWQRQFPAEVAYGA | soluble
MDQKEAPSFTEASVHDPSVIKVEDTFYVFGSHLAAAKTEDLRNWTQIATHVHEGNPLIPNVFVELAEAFEWANSNTLWAADVIQLEDGRFYMYYNACQGDAPRSALGVAVADDIEGPYENLGVFLKSGMWGEESPDGTIYDANVHPNAIDPHVFFDEEGKLWMVYGSYSGGIFILEMDPDTGFPLPGQGYGTHLMGGNHSRIEAPYIHYDKETEYYYLYVTFGGLDSTGGYNMRVARSKQPDGPYVDGEGHLMSEVRGAPGTLFDDASIEPYGVKQMGNFLFKRELGERGTGYVSPGHNSVYYDDEVDKIFLFFHTRFPERGEAHEIRVHQMFMNRKGWPVIAPYRYTGESLEKVKAKEVIGDYQWINHGKEISAEIKESVTVRLEKNHKVLGDVTGKWKKVGDYHVELQIDGETYYGVFLRQWDPVAEREVMTFTALSEEGIAIWGSQLEEKTDNEIVDAVYDDLTLEGTIISDVELPTRGMRQTTIAWSSSHEEVLSSSGKVNRPEIGEDDVVVSLTATISKGSAERIKTFELVVPGQTEGGLVAHYPLNGTLENAVDDARFGSGTVTGNRIDNPGGTIAFEQGIDGEAAVFDGTTGIRLPNGLISRNTYTVSFWLNPEQLTEFTTAFFAARSEHHWLSFVPRGHSGMNHDTMLWAGSAQWYDAGTGVKLPVGEWSHVAFSVDNGEIVIYLNGEERFRGENFPNLFTTPNAYFALGVNHWDAPFQGMIDELRIYDGVALTREEIVHLAKQKLEHHHHHH | soluble
MDQLEHLSLVSKVLSEVENHFGVVEKDVAEFVIHLAQENPTFDKLKKALDSQGLGDQFDDSLTATILRIVQSMTAVKKKNKKGGDSKEDIKDSHKITLISDAKEEIKARLPALAMANTAKEKEDNEDDLMAQLEKMEGRYESEKRLQKESDSKRNRSRSRSRSRDRKRRRSRSGDRDRRRRSRSREDRRDRDRRDRDRDRDRGRGDRRGDDRQRDRRDRRDDGGARKSEVAEIGKIYDGRVNSIQSFGAFITLEGFRQKQEGLVHISQIRNERVQTVADVLKRGENVKVKVNKIENGKISLSMKEVDQNSGEDLNPRETDLNPDAIGVRPRTPPASTSSWMNPEASGVGQGPSTSIGGGKARVRISTPERWELRQMQGAGVLTATDMPDFDEEMGVLRNYDDESDGEDIEIELVEDEPDFLRGYGKGGAEIEPVKVVKNPDGSLAQAALMQGALSKERKETKIQAQRERDMDTQKGFSSNARILDPMSGNQSTAWSADESKDRNNKMKEMPEWLKHVTAGGKATYGRRTNLSMVEQRESLPIFALKKNLMEAMIDNQILVVVGETGSGKTTQMTQYAIEAGLGRRGKIGCTQPRRVAAMSVAKRVAEEYGCKLGTDVGYTIRFEDCTSQDTIIKYMTDGMLLRECLIDPDLSGYSLIMLDEAHERTIHTDVLFGLLKAAARKRPELKLIITSATLDSVKFSEYFLEAPIFTIPGRTFPVEILYTREPESDYLEAAHITVMQIHLTEPPGDVLVFLTGQEEIDTSCEVLYERMKSMGPDVPELIILPVYGALPSEMQTRIFDPAPAGKRKVVIATNIAETSLTIDGIFYVVDPGFVKQKIYNPKSGMDSLVVTPISQAAAKQRSGRAGRTGPGKCYRLYTERAFRDEMLPTPVPEIQRTNLASTLLQLKAMGINNLIDFDFMDAPPLDSMITALNTLHTLSALDGDGLLTKLGRRMAEFPLEPSLSKLLIMSVDLGCSEEVLTIVAMLNVQNIFYRPKEKQDHADQKKAKFHQPEGDHLTLLAVYNSWKNHHFSQPWCFENFIQVRSMKRAQDIRKQLLGIMDRHKLLMVSCGRDVSRVQKAICSGFFRNAAKRDPQEGYRTLTDGQNVYIHPSSACFQQQPEWVVYHELVMTTKEYMREVTAIDPKWLVEFAPSFFKIGDSTKLSTFKRNQKIDPLFDKYADANAWRITRVKKRIYNPNK | soluble
MDQLQIKDLEMFAYHGLFPSEKELGQKFIVSAILSYDMTKAATDLDLTASVHYGELCQQWTTWFQETSEDLIETVAYKLVERTFESYPLVQEMKLELKKPWAPVHLSLDTCSVTIHRRKQRAFIALGSNMGDKQANLKQAIDKLRARGIHILKESSVLATEPWGGVEQDSFANQVVEVETWLPAQDLLETLLAIESELGRVREVHWGPRLIDLDLLFVEDQILYTDDLILPHPYIAERLFVLESLQEIAPHFIHPILKQPIRNLYDALKK | soluble
MDQQSTRTDITVNVDGFWMLQALLDIRHVAPELRCRPYVSTDSNDWLNEHPGMAVMREQGIVVNDAVNEQVAARMKVLAAPDLEVVALLSRGKLLYGVIDDENQPPGSRDIPDNEFRVVLARRGQHWVSAVRVGNDITVDDVTVSDSASIAALVMDGLESIHHADPAAINAVNVPMEEMLEATKSWQESGFNVFSGGDLRRMGISAATVAALGQALSDPAAEVAVYARQYRDDAKGPSASVLSLKDGSGGRIALYQQARTAGSGEAWLAICPATPQLVQVGVKTVLDTLPYGEWKTHSRV | soluble
MDRFENMNAFVRVVETGSISAAADRMDIAKSVVSRRLKELEEHLGVELFHRTTRQMNLTDSGRAFYQQSVRILADVLEAEHATSQFHGRLKGHLKVAVPLSFGLMHLGAAISTFLQTHPDIEFDLDFNDRQVDLLAEGFDLAIRIANLPDSSLIARRLAPIQAVMCASPAYLERMGTPQAPEELIRHRCLVYNLVSHSDNWNVYGTTGELIKTRIIPYLKASNGEFLRDAAVDGLGIVLLPTFIVYREIQRGALIPILTGYHYAQLAAYAIYPQTRHLSQRVRAFVDFLSQRFEGMPYWDACLNQ | not soluble
MDRHTTEGWRRWAARLGAAAMALLLAACAAPRQQAASVDELPSWNDGPSRTAIVEFVRAVTRSGGPDFVAADERIAVFDNDGTLWSEQPMYFQMLFALDRVKSMAPRHPDWARRQPFKAALQDDHAALAKGGDVALMKIVGATHTDMSTDTFTRSVRYWASTARHPRFDRLYTELTFAPMRELLDYLRAHGFKTYIVSGGETEFMRSWTQQAYGIPPEQVIGSSFVTTYGVRDGEPTLWRHGKLEFNDDGPGKPVAIQRYIGRRPILAFGNSDGDLQMLQWTAAGDGKRFAGLVHHTDAQREWAYDRDSRIGRLDRALDEARRQDWTVVDMKTEWKRVYAFEQP | not soluble
MDRIQENQKKATNLCELYADGNDDDSEKEQQDRGLDAQFLLRSTPEDVEKYMIHVRKQLMEGEGECLVELGAPINSNSKNPKSGLSEEDLDKAADAQLKILEKIPAVGTKVIRRKQTGGGSLFTEVWIIRDPPTEKDFIEARVAVVGNVDAGKSTLLGVLTHSALDDGRGAARTKLFRHKHEFESGRTSSVGNDILGFDVHGNIVNKPDPHNHNLDWVQIGSDCAKLVTFIDLAGHEKYLKTTIFGMTGHMPDYTMLMIGANMGIIGTTKEHLSLALSLHVPVYLVVTKIDMCPANILEETMKNITRLVRSAKKLPILVRNMDDVVHAAVNFPSKKVCPIFQVSNVEGTNLPLLRQFLNIVPLRRQLNENDPAHFQIDDIYWVDGVGTIASGTLLSGTIRLNDILLLGPTSNGDFMPIPIKSIHRKRMPVGIVKCGQSASFALKKIPKKDVRKGMVLVDPKVKPVASMVFEAEILVLHHPTTIKPNYQAMLHIGSVRQTATLVSMGKEVLRTGDRDKVQFKFIRQPEYIRPGTKMVFREGRTKAVGTVSSVVPQESLAQQRAKQKDGRQKQYGKKSMGPKPPNGKPKEKIEKKLDALSIEQLTSAASTSTSST | not soluble
MDRLIRSLLMNQNKQATDKLDHPDTSETVNISSLALLKMLRHARSGIPLEVMGLMLGDFVDDYTINVTDVFAMPQSGTSVTVESVDPVYQTKHMDLLKLVGRTENVVGWYHSHPGFGCWLSSVDVNTQQSFEALHPRAVAVVVDPIQSVKGKVMLDAFRSVNPLNLQIRPLAPTAEPRQTTSNLGHLTKPSLISVVHGLGTKYYSLNVAYRMGSNEQKMLMCLNKKSWYDQLNMSTYSELEKKQEEKFKSINKLIAVFNKDIDEVKEKPIADKKGKTQEEVKKFGKINAKQQLQMITSSLLNDSLCHQLTAMINAKSMT | not soluble
MDRNSLSNSLKTCYKYLNQTSRSFAAVIQALDGEMRNAVCIFYLVLRALDTLEDDMTISVEKKVPLLHNFHSFLYQPDWRFMESKEKDRQVLEDFPTISLEFRNLAEKYQTVIADICRRMGIGMAEFLDKHVTSEQEWDKYCHYVAGLVGIGLSRLFSASEFEDPLVGEDTERANSMGLFLQKTNIIRDYLEDQQGGREFWPQEVWSRYVKKLGDFAKPENIDLAVQCLNELITNALHHIPDVITYLSRLRNQSVFNFCAIPQVMAIATLAACYNNQQVFKGAVKIRKGQAVTLMMDATNMPAVKAIIYQYMEEIYHRIPDSDPSSSKTRQIISTIRTQN | soluble
